# Data from PMC5597230, “Identification and characterization of preferred DNA-binding sites for the Thermus thermophilus transcriptional regulator FadR”.
# Where a chain is given by its changes, count along the chain named.
# T1: FadR (Thermus thermophilus HB8, UniProt Q5SM42 1-205)
# T1 sequence: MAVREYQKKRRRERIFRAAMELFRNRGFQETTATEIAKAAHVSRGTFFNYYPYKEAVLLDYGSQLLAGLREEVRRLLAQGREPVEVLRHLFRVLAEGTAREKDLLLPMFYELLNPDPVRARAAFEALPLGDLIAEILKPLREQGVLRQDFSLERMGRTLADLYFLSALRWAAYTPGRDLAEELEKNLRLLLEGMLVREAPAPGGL
# B1: ST2_FadR_R5_wt (dsDNA)
# DNA 1: AGGAATTCGTGCAGAGGTGAATTTGGACTTAGTCCAATTACCATCCCTCCAGAAGCTTGG
# DNA 2: CCAAGCTTCTGGAGGGATGGTAATTGGACTAAGTCCAAATTCACCTCTGCACGAATTCCT
# B2: ST2_FadR_TTHA0390 (dsDNA)
# DNA 1: B1 DNA 1 with G26A, T29C, T30G, A31G, C34A, C35T
# DNA 2: B1 DNA 2 with G26A, G27T, T30C, A31C, A32G, C35T
# B3: ST2_FadR_TTHA0604 (dsDNA)
# DNA 1: B1 DNA 1 with G25A, G26T, T30G, A31G, C35T
# DNA 2: B1 DNA 2 with G26A, T30C, A31C, C35A, C36T
# B4: ST2_FadR_TTHA0846 (dsDNA)
# DNA 1: B1 DNA 1 with G25A, G26T, T30C, C34A, A37T
# DNA 2: B1 DNA 2 with T24A, G27T, A31G, C35A, C36T
# B5: ST2_FadR_TTHA0402 (dsDNA)
# DNA 1: B1 DNA 1 with G26A, T29C, T30C, C34A, C35T
# DNA 2: B1 DNA 2 with G26A, G27T, A31G, A32G, C35T
# B6: ST2_FadR_TTHA1144 (dsDNA)
# DNA 1: B1 DNA 1 with G25A, T30C, A31G, C35A
# DNA 2: B1 DNA 2 with G26T, T30C, A31G, C36T
# B7: ST2_FadR_TTHA0103 (dsDNA)
# DNA 1: B1 DNA 1 with T29C, A31G, C34A, C35A
# DNA 2: B1 DNA 2 with G26T, G27T, T30C, A32G
# B8: ST2_FadR_TTHA1118 (dsDNA)
# DNA 1: B1 DNA 1 with G25A, G26T, T30C, A31G, C34A, C35A
# DNA 2: B1 DNA 2 with G26T, G27T, T30C, A31G, C35A, C36T
# B9: ST2_FadR_TTHA1463 (dsDNA)
# DNA 1: B1 DNA 1 with G26A, T29C, T30C, A31G, C34A
# DNA 2: B1 DNA 2 with G27T, T30C, A31G, A32G, C35T
# B10: ST2_FadR_TTHB017 (dsDNA)
# DNA 1: B1 DNA 1 with G25A, G26T, T30G, A31G
# DNA 2: B1 DNA 2 with T30C, A31C, C35A, C36T
# B11: ST2_FadR_R5_m5 (dsDNA)
# DNA 1: B1 DNA 1 with A27G
# DNA 2: B1 DNA 2 with T34C
# B12: ST2_FadR_R5_m3 (dsDNA)
# DNA 1: B1 DNA 1 with G25C
# DNA 2: B1 DNA 2 with C36G
# B13: ST2_FadR_R5_m4 (dsDNA)
# DNA 1: B1 DNA 1 with G26C
# DNA 2: B1 DNA 2 with C35G
# B14: ST2_FadR_R5_m1 (dsDNA)
# DNA 1: B1 DNA 1 with T23G
# DNA 2: B1 DNA 2 with A38C
# B15: ST2_FadR_R5_m7 (dsDNA)
# DNA 1: B1 DNA 1 with T29A
# DNA 2: B1 DNA 2 with A32T
# Target: T1, FadR
# Assay: EMSA; EMSA as in previous SbtR study (buffer, salt, pH, temperature not given in the material); FadR titrations up to 600 nM, IRD700-labeled probes
# Conditions: protein: recombinant; tags: none stated (pET-11a); chain copies: 2; label: IRD700
row,Binder,Kd [nM]
1,B1,0.17

# Target: T1, FadR
# Assay: EMSA; Kd in figure only; all promoter probes 0.053-11 nM; EMSA as in previous SbtR study (buffer, salt, pH, temperature not given in the material); FadR titrations up to 600 nM, IRD700-labeled probes
# Conditions: protein: recombinant; tags: none stated (pET-11a); chain copies: 2; label: IRD700
row,Binder,binding result
1,B2,binds
2,B3,binds
3,B4,binds
4,B5,binds
5,B6,binds
6,B7,binds
7,B8,binds

# Target: T1, FadR
# Assay: EMSA; very low KD stated; value in figure only; EMSA as in previous SbtR study (buffer, salt, pH, temperature not given in the material); FadR titrations up to 600 nM, IRD700-labeled probes
# Conditions: protein: recombinant; tags: none stated (pET-11a); chain copies: 2; label: IRD700
row,Binder,binding result
1,B9,binds
2,B10,binds

# Target: T1, FadR
# Assay: EMSA; range stated for m1,m3,m4,m5,m7; exact value only in figure; EMSA as in previous SbtR study (buffer, salt, pH, temperature not given in the material); FadR titrations up to 600 nM, IRD700-labeled probes
# Conditions: protein: recombinant; tags: none stated (pET-11a); chain copies: 2; label: IRD700
row,Binder,Kd [nM]
1,B11,~4.69
2,B12,~4.69
3,B13,~4.69
4,B14,~4.69
5,B15,~4.69
